Assay [1] has as its target T1, CynoIL36R-ECD mFc recombinant protein (cynomolgus monkey).
T1 construct: Made in ExpiCHO, purified on Protein A; also called cynomolgus IL-36R extracellular region with mouse antibody heavy chain Fc
T1 chain: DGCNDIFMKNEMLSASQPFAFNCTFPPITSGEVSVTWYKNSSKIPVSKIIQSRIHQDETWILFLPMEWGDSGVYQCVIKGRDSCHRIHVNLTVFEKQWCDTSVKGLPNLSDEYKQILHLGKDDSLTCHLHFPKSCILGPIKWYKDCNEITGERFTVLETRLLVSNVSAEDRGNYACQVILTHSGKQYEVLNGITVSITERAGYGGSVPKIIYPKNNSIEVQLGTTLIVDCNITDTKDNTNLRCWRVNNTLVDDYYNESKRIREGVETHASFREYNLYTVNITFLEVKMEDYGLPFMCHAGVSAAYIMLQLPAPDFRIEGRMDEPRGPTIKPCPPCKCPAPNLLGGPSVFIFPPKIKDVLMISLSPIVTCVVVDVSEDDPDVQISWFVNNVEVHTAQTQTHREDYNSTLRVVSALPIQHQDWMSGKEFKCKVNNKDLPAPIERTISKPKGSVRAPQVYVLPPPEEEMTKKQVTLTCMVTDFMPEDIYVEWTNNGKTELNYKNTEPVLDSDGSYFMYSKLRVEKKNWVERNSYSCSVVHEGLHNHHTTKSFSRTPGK
Description: ELISA, plate coated with CynoIL36R-ECD mFc, HRP-protein A/G, OD450. The method, then: The binding activity of anti-IL-36R antibodies to IL-36R was analyzed by ELISA using human IL-1Rrp2/IL-1R6 protein, His Tag (ACROBiosystems, IL2-H52H6) and CynoIL36R-ECD mFc (for detection of chimeric and humanized antibodies), and hIL36R-ECD hFc and CynoIL36R-ECD hFc protein (for detection of hybridoma antibodies) as antigens. A 96-well plate (Costar, 9018) was coated with 2 μg/mL antigen at 100 μL/well and incubated overnight at 4° C. After the 96-well plate was washed with a washing buffer (PBS containing 0.05% v/v Tween 20), a blocking buffer (PBS containing 2% bovine serum albumin) was added for blocking at 37° C. for 2 h. After the 96-well plate was washed with the washing buffer, 100 μL of the gradient diluted anti-IL-36R antibody of the present disclosure or the reference antibody BI655130 (the initial concentration of the antibody was 66 nM, 4-fold gradient dilution) was added to each well, and the plate was incubated at room temperature for 1 h. After the 96-well plate was washed with the washing buffer, 100 μL of horseradish peroxidase-conjugated recombinant protein A/G (TheroScientific, 32490) was added to each well, and the plate was incubated at room temperature for 1 h. After the 96-well plate was washed with the washing buffer, 100 μL of a TMB solution (Thermo, 00-4201-56) was added to each well, and the plate was incubated at room temperature for 2 min. Finally, 100 μL of a stop solution (2 N H₂SO₄) was added to each well to stop the reaction. Absorbance was read at 450 nm using a microplate reader (PE, Envision), the resulting data was analyzed using GraphPad Prism, and EC₅₀ was calculated. Binding EC₅₀ of the chimeric anti-IL-36R antibodies to hIL-36R in an ELISA assay is shown in FIG. 1. and binding EC₅₀ of the chimeric anti-IL-36R antibodies to CynoIL-36R in an ELISA assay is shown in FIG. 2. The binding of BI655130 is shown as a control, and the binding of IgG4 is shown as a negative control.

In assay [2] the target is T2, IL-36R naturally expressed on OVCAR8 cells and on normal human epidermal keratinocytes (NHK cells) (human, UniProt Q9HB29 20-575).
T2 sequence (looked up): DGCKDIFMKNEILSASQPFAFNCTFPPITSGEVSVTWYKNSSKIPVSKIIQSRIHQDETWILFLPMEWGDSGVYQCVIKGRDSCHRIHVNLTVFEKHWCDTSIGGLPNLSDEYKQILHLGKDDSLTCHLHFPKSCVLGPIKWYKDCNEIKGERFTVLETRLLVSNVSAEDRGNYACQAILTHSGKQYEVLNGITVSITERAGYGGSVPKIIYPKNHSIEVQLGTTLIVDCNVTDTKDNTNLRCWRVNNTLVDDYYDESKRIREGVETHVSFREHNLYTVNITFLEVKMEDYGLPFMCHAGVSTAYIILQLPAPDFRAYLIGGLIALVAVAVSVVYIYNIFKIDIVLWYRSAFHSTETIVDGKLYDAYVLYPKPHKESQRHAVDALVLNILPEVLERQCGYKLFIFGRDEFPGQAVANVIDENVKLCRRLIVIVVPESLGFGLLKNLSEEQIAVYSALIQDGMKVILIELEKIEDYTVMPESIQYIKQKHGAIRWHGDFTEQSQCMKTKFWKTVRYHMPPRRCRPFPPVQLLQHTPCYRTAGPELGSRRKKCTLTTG
Put plainly: cell-based or functional assay.

B1: BI655130 (antibody, human IgG1, kappa, L234A L235A)
heavy: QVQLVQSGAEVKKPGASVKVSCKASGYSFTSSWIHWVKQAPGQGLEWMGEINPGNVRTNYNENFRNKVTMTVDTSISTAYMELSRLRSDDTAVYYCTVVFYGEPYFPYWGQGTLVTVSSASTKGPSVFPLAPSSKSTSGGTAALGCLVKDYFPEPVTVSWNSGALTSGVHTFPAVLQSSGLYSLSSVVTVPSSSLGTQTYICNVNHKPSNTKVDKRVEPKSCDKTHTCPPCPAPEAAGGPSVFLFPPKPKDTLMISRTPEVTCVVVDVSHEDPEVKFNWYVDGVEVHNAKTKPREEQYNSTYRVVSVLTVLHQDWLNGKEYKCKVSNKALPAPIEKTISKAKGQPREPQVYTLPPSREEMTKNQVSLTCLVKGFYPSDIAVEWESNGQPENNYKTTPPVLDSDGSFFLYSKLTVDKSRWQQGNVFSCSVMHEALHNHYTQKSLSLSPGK
light: QIVLTQSPGTLSLSPGERATMTCTASSSVSSSYFHWYQQKPGQAPRLWIYRTSRLASGVPDRFSGSGSGTDFTLTISRLEPEDAATYYCHQFHRSPLTFGAGTKLEIKRTVAAPSVFIFPPSDEQLKSGTASVVCLLNNFYPREAKVQWKVDNALQSGNSQESVTEQDSKDSTYSLSSTLTLSKADYEKHKVYACEVTHQGLSSPVTKSFNRGEC
notes: also called Spesolimab
With B1, the EC50 in assay [1] is 1.97 nM. For the same molecule, in assay [2], the “IC50 (M); hIL36α; IL-8 production” value was determined as 1.26e-10 M, the “IC50 (M); hIL36αβγ; IL-8 production” value stood at 1.98e-10 M, the “IC50 (M); hIL36β; IL-8 production” value amounted to 3.03e-10 M and the “IC50 (M); hIL36γ; IL-8 production” value came out at 4.42e-11 M. Besides, in assay [2], the “Maximum inhibition rate %; hIL36α; IL-8 production” value is 106%, the “Maximum inhibition rate %; hIL36αβγ; IL-8 production” value (“Maximum inhibition rate %; hIL36αβγ” below) is 98.9%, the “Maximum inhibition rate %; hIL36β; IL-8 production” value (“Maximum inhibition rate %; hIL36β” for short) turned out to be 101% and the “Maximum inhibition rate %; hIL36γ; IL-8 production” value (“Maximum inhibition rate %; hIL36γ” below) worked out at 105%.

B2: hz72C1-1.2 (antibody, human IgG4 S228P, kappa)
heavy: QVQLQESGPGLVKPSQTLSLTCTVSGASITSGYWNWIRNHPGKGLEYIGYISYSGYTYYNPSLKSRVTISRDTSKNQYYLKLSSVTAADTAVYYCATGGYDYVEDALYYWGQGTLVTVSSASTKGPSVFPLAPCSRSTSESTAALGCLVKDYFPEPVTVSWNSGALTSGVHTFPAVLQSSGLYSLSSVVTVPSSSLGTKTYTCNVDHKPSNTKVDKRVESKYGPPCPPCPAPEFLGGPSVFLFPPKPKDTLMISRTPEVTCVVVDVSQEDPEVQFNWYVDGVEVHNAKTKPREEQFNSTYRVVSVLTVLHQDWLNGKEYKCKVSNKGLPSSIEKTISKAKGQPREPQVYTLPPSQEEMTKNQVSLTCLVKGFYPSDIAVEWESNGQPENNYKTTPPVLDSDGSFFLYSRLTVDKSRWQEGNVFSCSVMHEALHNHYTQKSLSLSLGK
light: DIQMTQSPSSLSASVGDRVTITCRASSNVRYMYWYQQKPGKAPKLWIYLTSNLASGVPSRFSGSGSGTSYTLTISSLQPEDFATYYCQQFTTSPYTFGQGTKLEIKRTVAAPSVFIFPPSDEQLKSGTASVVCLLNNFYPREAKVQWKVDNALQSGNSQESVTEQDSKDSTYSLSSTLTLSKADYEKHKVYACEVTHQGLSSPVTKSFNRGEC
notes: Humanized, human IgG4 / kappa
B2: the EC50 in assay [1] was 4.26 nM. In assay [2], the “IC50 (M); hIL36α; IL-8 production” value amounted to 1.19e-10 M, the “IC50 (M); hIL36αβγ; IL-8 production” value was 3.29e-10 M, the “IC50 (M); hIL36β; IL-8 production” value was found to be 4.33e-10 M and the “IC50 (M); hIL36γ; IL-8 production” value stood at 1.14e-10 M. Also, in assay [2], the “Maximum inhibition rate %; hIL36α; IL-8 production” value was 96.1%, the “Maximum inhibition rate %; hIL36αβγ” value amounted to 89.6%, the “Maximum inhibition rate %; hIL36β” value was 84.7% and the “Maximum inhibition rate %; hIL36γ” value was determined as 85.7%.

B3: hz72C1-2.3 (antibody, human IgG4 S228P, kappa)
heavy: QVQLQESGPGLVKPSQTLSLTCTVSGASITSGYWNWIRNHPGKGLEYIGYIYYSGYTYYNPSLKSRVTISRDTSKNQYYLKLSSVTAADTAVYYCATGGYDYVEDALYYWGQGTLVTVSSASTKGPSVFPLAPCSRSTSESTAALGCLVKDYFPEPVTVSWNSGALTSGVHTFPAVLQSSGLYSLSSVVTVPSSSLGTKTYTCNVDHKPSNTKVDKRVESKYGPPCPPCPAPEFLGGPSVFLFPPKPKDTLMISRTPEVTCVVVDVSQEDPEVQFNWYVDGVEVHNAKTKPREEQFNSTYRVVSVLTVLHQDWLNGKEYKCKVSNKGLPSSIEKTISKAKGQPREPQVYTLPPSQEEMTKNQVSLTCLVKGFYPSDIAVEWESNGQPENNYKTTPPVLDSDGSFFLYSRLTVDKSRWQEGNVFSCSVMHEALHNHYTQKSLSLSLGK
light: DIQMTQSPSSLSASVGDRVTITCRASSNVRYMYWYQQKPGKAPKLWIYLTSNLASGVPSRFSGSGSGTSYTLTISSLQPEDFATYYCQQYTTSPYTFGQGTKLEIKRTVAAPSVFIFPPSDEQLKSGTASVVCLLNNFYPREAKVQWKVDNALQSGNSQESVTEQDSKDSTYSLSSTLTLSKADYEKHKVYACEVTHQGLSSPVTKSFNRGEC
notes: Humanized, human IgG4 / kappa
Consider B3, for which the EC50 in assay [1] turned out to be 6.38 nM. For the same molecule, in assay [2], the “IC50 (M); hIL36α; IL-8 production” value stood at 1.8e-10 M, the “IC50 (M); hIL36αβγ; IL-8 production” value was found to be 4.5e-09 M, the “IC50 (M); hIL36β; IL-8 production” value is 2.67e-09 M and the “IC50 (M); hIL36γ; IL-8 production” value was 5.6e-10 M. Besides, in assay [2], the “Maximum inhibition rate %; hIL36α; IL-8 production” value was 82%, the “Maximum inhibition rate %; hIL36αβγ” value came to 80%, the “Maximum inhibition rate %; hIL36β” value was found to be 78.3% and the “Maximum inhibition rate %; hIL36γ” value worked out at 90.8%.

B4: hz72C1-2.1 (antibody, human IgG4 S228P, kappa)
heavy: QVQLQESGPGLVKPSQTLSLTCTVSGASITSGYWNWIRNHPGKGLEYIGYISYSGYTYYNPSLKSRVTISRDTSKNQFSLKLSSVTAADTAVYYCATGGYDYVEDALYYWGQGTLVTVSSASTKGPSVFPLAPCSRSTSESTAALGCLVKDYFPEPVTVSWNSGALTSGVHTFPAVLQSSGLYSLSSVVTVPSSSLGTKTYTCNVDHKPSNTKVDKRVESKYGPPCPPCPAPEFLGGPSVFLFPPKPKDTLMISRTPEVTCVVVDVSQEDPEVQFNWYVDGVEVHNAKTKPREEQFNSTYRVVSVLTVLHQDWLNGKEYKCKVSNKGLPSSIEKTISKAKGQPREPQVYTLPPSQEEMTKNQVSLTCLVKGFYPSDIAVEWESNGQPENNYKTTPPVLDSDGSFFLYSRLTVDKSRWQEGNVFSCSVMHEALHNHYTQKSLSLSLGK
light: DIQMTQSPSSLSASVGDRVTITCRASSNVRYMYWYQQKPGKAPKLWIYLTSNLASGVPSRFSGSGSGTSYTLTISSLQPEDFATYYCQQYTTSPYTFGQGTKLEIKRTVAAPSVFIFPPSDEQLKSGTASVVCLLNNFYPREAKVQWKVDNALQSGNSQESVTEQDSKDSTYSLSSTLTLSKADYEKHKVYACEVTHQGLSSPVTKSFNRGEC
notes: Humanized, human IgG4 / kappa
For the molecule B4, the EC50 in assay [1] worked out at 10.5 nM. Further, in assay [2], the “IC50 (M); hIL36α; IL-8 production” value stood at 1.13e-09 M, the “IC50 (M); hIL36αβγ; IL-8 production” value was determined as 1.78e-09 M, the “IC50 (M); hIL36β; IL-8 production” value came out at 1.41e-09 M and the “IC50 (M); hIL36γ; IL-8 production” value was 2.41e-10 M. In assay [2], the “Maximum inhibition rate %; hIL36α; IL-8 production” value stood at 93.5%, the “Maximum inhibition rate %; hIL36αβγ” value was found to be 84.6%, the “Maximum inhibition rate %; hIL36β” value stood at 82.1% and the “Maximum inhibition rate %; hIL36γ” value was found to be 94.1%.

B5: hz72C1-1.1 (antibody, human IgG4 S228P, kappa)
heavy: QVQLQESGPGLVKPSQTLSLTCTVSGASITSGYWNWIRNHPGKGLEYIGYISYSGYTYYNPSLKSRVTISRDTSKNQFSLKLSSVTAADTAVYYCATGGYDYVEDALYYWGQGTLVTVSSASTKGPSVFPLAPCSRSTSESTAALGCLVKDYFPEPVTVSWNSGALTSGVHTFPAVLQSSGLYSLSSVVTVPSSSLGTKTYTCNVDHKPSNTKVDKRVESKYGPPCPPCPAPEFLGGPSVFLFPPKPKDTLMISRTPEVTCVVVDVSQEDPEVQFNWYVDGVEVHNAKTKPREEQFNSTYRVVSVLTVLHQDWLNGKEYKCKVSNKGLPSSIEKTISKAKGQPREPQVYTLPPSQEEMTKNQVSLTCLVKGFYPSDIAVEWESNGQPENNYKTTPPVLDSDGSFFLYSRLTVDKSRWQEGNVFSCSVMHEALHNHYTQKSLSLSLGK
light: DIQMTQSPSSLSASVGDRVTITCRASSNVRYMYWYQQKPGKAPKLWIYLTSNLASGVPSRFSGSGSGTSYTLTISSLQPEDFATYYCQQFTTSPYTFGQGTKLEIKRTVAAPSVFIFPPSDEQLKSGTASVVCLLNNFYPREAKVQWKVDNALQSGNSQESVTEQDSKDSTYSLSSTLTLSKADYEKHKVYACEVTHQGLSSPVTKSFNRGEC
notes: Humanized, human IgG4 / kappa; also called humanized 72C1 antibody 1.1
As for B5, the EC50 in assay [1] was determined as 2.73 nM. In assay [2], the “IC50 (M); hIL36α; IL-8 production” value is 2.19e-10 M, the “IC50 (M); hIL36αβγ; IL-8 production” value came to 3.72e-10 M, the “IC50 (M); hIL36β; IL-8 production” value worked out at 3.85e-10 M and the “IC50 (M); hIL36γ; IL-8 production” value came out at 1.21e-10 M. Further, in assay [2], the “Maximum inhibition rate %; hIL36α; IL-8 production” value was 99%, the “Maximum inhibition rate %; hIL36αβγ” value is 93.7%, the “Maximum inhibition rate %; hIL36β” value turned out to be 86.7% and the “Maximum inhibition rate %; hIL36γ” value worked out at 102%.

B6: hz72C1-1.3 (antibody, human IgG4 S228P, kappa)
heavy: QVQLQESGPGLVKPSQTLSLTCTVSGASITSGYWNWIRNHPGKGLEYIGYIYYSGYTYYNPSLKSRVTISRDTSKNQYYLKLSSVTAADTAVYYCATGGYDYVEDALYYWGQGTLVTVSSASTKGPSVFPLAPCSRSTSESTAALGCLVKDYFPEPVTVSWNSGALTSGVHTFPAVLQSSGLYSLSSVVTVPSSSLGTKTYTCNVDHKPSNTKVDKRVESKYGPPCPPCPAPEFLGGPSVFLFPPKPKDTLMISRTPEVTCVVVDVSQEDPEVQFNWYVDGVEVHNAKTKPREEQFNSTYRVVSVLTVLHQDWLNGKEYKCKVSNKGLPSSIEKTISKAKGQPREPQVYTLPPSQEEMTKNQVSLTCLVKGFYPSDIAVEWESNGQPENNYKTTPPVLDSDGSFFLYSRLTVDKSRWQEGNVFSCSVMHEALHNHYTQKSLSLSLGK
light: DIQMTQSPSSLSASVGDRVTITCRASSNVRYMYWYQQKPGKAPKLWIYLTSNLASGVPSRFSGSGSGTSYTLTISSLQPEDFATYYCQQFTTSPYTFGQGTKLEIKRTVAAPSVFIFPPSDEQLKSGTASVVCLLNNFYPREAKVQWKVDNALQSGNSQESVTEQDSKDSTYSLSSTLTLSKADYEKHKVYACEVTHQGLSSPVTKSFNRGEC
notes: Humanized, human IgG4 / kappa
For the molecule B6, in assay [1], the EC50 was 2.86 nM. In assay [2], the “IC50 (M); hIL36α; IL-8 production” value turned out to be 7.09e-11 M, the “IC50 (M); hIL36αβγ; IL-8 production” value stood at 3.82e-10 M, the “IC50 (M); hIL36β; IL-8 production” value is 2.4e-10 M and the “IC50 (M); hIL36γ; IL-8 production” value was determined as 1.03e-10 M. Moreover, in assay [2], the “Maximum inhibition rate %; hIL36α; IL-8 production” value amounted to 97.3%, the “Maximum inhibition rate %; hIL36αβγ” value worked out at 90.3%, the “Maximum inhibition rate %; hIL36β” value amounted to 90.3% and the “Maximum inhibition rate %; hIL36γ” value turned out to be 93.5%.

B7: hz72C1-2.2 (antibody, human IgG4 S228P, kappa)
heavy: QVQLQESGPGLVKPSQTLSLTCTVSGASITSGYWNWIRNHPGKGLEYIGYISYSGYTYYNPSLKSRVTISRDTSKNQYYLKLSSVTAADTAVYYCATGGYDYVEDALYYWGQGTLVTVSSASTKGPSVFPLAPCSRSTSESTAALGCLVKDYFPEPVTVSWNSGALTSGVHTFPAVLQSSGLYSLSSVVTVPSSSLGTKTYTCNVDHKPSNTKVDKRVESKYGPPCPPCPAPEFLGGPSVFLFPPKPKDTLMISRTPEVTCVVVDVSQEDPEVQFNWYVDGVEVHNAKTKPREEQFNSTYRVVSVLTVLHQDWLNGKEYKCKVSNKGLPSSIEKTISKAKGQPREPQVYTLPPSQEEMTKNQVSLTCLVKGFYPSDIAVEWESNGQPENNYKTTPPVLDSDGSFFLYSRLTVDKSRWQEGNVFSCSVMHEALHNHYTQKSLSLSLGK
light: DIQMTQSPSSLSASVGDRVTITCRASSNVRYMYWYQQKPGKAPKLWIYLTSNLASGVPSRFSGSGSGTSYTLTISSLQPEDFATYYCQQYTTSPYTFGQGTKLEIKRTVAAPSVFIFPPSDEQLKSGTASVVCLLNNFYPREAKVQWKVDNALQSGNSQESVTEQDSKDSTYSLSSTLTLSKADYEKHKVYACEVTHQGLSSPVTKSFNRGEC
notes: Humanized, human IgG4 / kappa
For B7, the EC50 in assay [1] amounted to 4.87 nM. Also, in assay [2], the “IC50 (M); hIL36α; IL-8 production” value is 2.45e-10 M, the “IC50 (M); hIL36αβγ; IL-8 production” value turned out to be 1.49e-09 M, the “IC50 (M); hIL36β; IL-8 production” value stood at 1.1e-09 M and the “IC50 (M); hIL36γ; IL-8 production” value is 1.18e-09 M. For the same molecule, in assay [2], the “Maximum inhibition rate %; hIL36α; IL-8 production” value amounted to 97.3%, the “Maximum inhibition rate %; hIL36αβγ” value was 85.3%, the “Maximum inhibition rate %; hIL36β” value is 82.5% and the “Maximum inhibition rate %; hIL36γ” value amounted to 89%.

Values taken from patent US20240270857A1 (CHIA TAI TIANQING PHARMACEUTICAL GROUP, published 2024).
